Positions of bridges follow the written chain, without caps; N, C: chain ends. Non-standard residues stand in square brackets, D forms with d. No end group written: not given here. *: point of attachment. Acetyl(2-(4-imidazolyl)) = O=C(Cc1c[nH]cn1)*; Aib = CC(C)(N)C(=O)O
Experiments:
Assay in all cases: cell-based or functional assay
[1] = target: human GLP-1 receptor (human, UniProt P43220 24-463)
[2] = target: human GCG receptor (human, UniProt P47871 26-477)
[3] = target: T1, human GIP receptor (human, UniProt P48546 22-466)
T1 sequence (looked up): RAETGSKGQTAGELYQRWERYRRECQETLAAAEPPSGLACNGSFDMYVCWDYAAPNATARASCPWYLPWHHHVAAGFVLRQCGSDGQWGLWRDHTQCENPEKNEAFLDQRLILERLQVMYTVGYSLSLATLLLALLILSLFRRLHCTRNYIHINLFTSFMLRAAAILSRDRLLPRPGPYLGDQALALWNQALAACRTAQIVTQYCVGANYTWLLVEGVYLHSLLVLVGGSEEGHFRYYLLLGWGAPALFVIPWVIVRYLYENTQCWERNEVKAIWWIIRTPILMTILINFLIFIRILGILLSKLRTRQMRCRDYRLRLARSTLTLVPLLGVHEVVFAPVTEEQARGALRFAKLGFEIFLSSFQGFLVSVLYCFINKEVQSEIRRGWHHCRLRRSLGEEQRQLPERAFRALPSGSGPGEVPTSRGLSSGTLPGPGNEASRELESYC

Chain of human GCG receptor (P47871 26-477): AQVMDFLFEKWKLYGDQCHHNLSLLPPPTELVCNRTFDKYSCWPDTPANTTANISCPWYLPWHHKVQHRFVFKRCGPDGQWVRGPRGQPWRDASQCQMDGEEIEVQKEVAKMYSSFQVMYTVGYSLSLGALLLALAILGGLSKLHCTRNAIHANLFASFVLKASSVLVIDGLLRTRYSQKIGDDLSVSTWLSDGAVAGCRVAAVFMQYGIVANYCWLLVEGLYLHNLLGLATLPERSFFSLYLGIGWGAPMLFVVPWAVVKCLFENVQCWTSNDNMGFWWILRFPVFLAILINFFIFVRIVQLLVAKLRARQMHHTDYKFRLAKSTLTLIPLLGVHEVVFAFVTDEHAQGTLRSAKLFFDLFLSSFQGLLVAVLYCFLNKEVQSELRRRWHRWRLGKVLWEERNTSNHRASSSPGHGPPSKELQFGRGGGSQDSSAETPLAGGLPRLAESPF

B1: triple agonist of SEQ ID NO: 7 (peptide)
peptide: H[Aib]QGTFTSDVSKYLDGQAAKEFVAWLLKGC
modifications: not fully specified
In vitro activity (%) compared with native peptide: vs GLP-1 [1]: 13.7%
In vitro activity (%) compared with native peptide: vs Glucagon [2]: < 0.1%
In vitro activity (%) compared with native peptide: vs GIP [3]: < 0.1%

B2: triple agonist of SEQ ID NO: 56 (peptide)
peptide: H[Aib]QGTFTSDYSKYLDEKRQKEFVNWLLAQC
modifications: bridge 16-20
In vitro activity (%) compared with native peptide: vs GLP-1 [1]: 57.9%
In vitro activity (%) compared with native peptide: vs Glucagon [2]: 4.9%
In vitro activity (%) compared with native peptide: vs GIP [3]: 0.8%

B3: triple agonist of SEQ ID NO: 5 (peptide)
peptide: H[Aib]QGTFTSDVSSYLLGQQQKEFIAWLVKGGGPSSGAPPPSC
modifications: not fully specified
In vitro activity (%) compared with native peptide: vs GLP-1 [1]: 42.1%
In vitro activity (%) compared with native peptide: vs Glucagon [2]: < 0.1%
In vitro activity (%) compared with native peptide: vs GIP [3]: < 0.1%

B4: triple agonist of SEQ ID NO: 6 (peptide)
peptide: H[Aib]QGTFTSDVSSYLDGQAAKEFVAWLLKGC
modifications: not fully specified
In vitro activity (%) compared with native peptide: vs GLP-1 [1]: 17%
In vitro activity (%) compared with native peptide: vs Glucagon [2]: < 0.1%
In vitro activity (%) compared with native peptide: vs GIP [3]: < 0.1%

B5: triple agonist of SEQ ID NO: 66 (peptide)
peptide: Y[Aib]QGTFTSDYSKYLDECRAKDFVQWLLDHHPSSGQPPPS
modifications: bridge 16-20; not fully specified
In vitro activity (%) compared with native peptide: vs GLP-1 [1]: 15.8%
In vitro activity (%) compared with native peptide: vs Glucagon [2]: 172%
In vitro activity (%) compared with native peptide: vs GIP [3]: 17.2%

B6: triple agonist of SEQ ID NO: 61 (peptide)
peptide: {Acetyl(2-(4-imidazolyl))}-[Aib]QGTFTSDYSIAMDEIACKDFVNWLLNTK
modifications: bridge 15-19; not fully specified
In vitro activity (%) compared with native peptide: vs GLP-1 [1]: 59.8%
In vitro activity (%) compared with native peptide: vs Glucagon [2]: < 0.1%
In vitro activity (%) compared with native peptide: vs GIP [3]: 2.8%

B7: triple agonist of SEQ ID NO: 69 (peptide)
peptide: Y[Aib]QGTFTSDYSKCLDERAAKEFVQWLLDHHPSSGQPPPS
modifications: bridge 16-20; not fully specified
In vitro activity (%) compared with native peptide: vs GLP-1 [1]: 24.3%
In vitro activity (%) compared with native peptide: vs Glucagon [2]: 9.6%
In vitro activity (%) compared with native peptide: vs GIP [3]: 62.8%

B8: triple agonist of SEQ ID NO: 51 (peptide)
peptide: H[Aib]QGTFTSDYSKYLDEKRQKEFVQWLLNTC
modifications: bridge 16-20; not fully specified
In vitro activity (%) compared with native peptide: vs GLP-1 [1]: 14.4%
In vitro activity (%) compared with native peptide: vs Glucagon [2]: 2%
In vitro activity (%) compared with native peptide: vs GIP [3]: 0.1%

B9: triple agonist of SEQ ID NO: 68 (peptide)
peptide: Y[Aib]QGTFTSDYSKCLDEKAAKEFVQWLLDHHPSSGQPPPS
modifications: bridge 16-20; not fully specified
In vitro activity (%) compared with native peptide: vs GLP-1 [1]: 27.9%
In vitro activity (%) compared with native peptide: vs Glucagon [2]: 8.8%
In vitro activity (%) compared with native peptide: vs GIP [3]: 107%

B10: triple agonist of SEQ ID NO: 58 (peptide)
peptide: H[Aib]QGTFTSDYSKYLDEKRQKEFVQWLLNTKC
modifications: bridge 16-20; not fully specified
In vitro activity (%) compared with native peptide: vs GLP-1 [1]: 39.1%
In vitro activity (%) compared with native peptide: vs Glucagon [2]: 2.6%
In vitro activity (%) compared with native peptide: vs GIP [3]: 0.2%

B11: triple agonist of SEQ ID NO: 59 (peptide)
peptide: {Acetyl(2-(4-imidazolyl))}-[Aib]QGTFTSDYSICMDEKHQKDFVNWLLNTK
modifications: bridge 15-19; not fully specified
In vitro activity (%) compared with native peptide: vs GLP-1 [1]: 40.3%
In vitro activity (%) compared with native peptide: vs Glucagon [2]: < 0.1%
In vitro activity (%) compared with native peptide: vs GIP [3]: 4%

B12: triple agonist of SEQ ID NO: 63 (peptide)
peptide: {Acetyl(2-(4-imidazolyl))}-[Aib]QGTFTSDCSKYLDERAAQDFVQWLLDGGPSSGAPPPS
modifications: not fully specified
In vitro activity (%) compared with native peptide: vs GLP-1 [1]: 15.3%
In vitro activity (%) compared with native peptide: vs Glucagon [2]: < 0.1%
In vitro activity (%) compared with native peptide: vs GIP [3]: < 0.1%

B13: triple agonist of SEQ ID NO: 65 (peptide)
peptide: H[Aib]QGTFTSDYSKCLDEKRAKEFVQWLLDHHPSSGQPPPS
modifications: bridge 16-20; not fully specified
In vitro activity (%) compared with native peptide: vs GLP-1 [1]: 95.4%
In vitro activity (%) compared with native peptide: vs Glucagon [2]: 25.2%
In vitro activity (%) compared with native peptide: vs GIP [3]: 11.6%

B14: triple agonist of SEQ ID NO: 44 (peptide)
peptide: HGQGTFTSDCSKQLDGQAAQEFVAWLLAGGPSSGAPPPS
modifications: ends and bridges not checked
In vitro activity (%) compared with native peptide: vs GLP-1 [1]: 1.3%
In vitro activity (%) compared with native peptide: vs Glucagon [2]: < 0.1%
In vitro activity (%) compared with native peptide: vs GIP [3]: < 0.1%

B15: triple agonist of SEQ ID NO: 46 (peptide)
peptide: HGQGTFTSDCSKYLDEQHAQEFVAWLLAGGPSSGAPPPS
modifications: ends and bridges not checked
In vitro activity (%) compared with native peptide: vs GLP-1 [1]: 1.4%
In vitro activity (%) compared with native peptide: vs Glucagon [2]: < 0.1%
In vitro activity (%) compared with native peptide: vs GIP [3]: < 0.1%

B16: triple agonist of SEQ ID NO: 48 (peptide)
peptide: HGQGTFTSDCSKYLDGQRAQDFVNWLLAGGPSSGAPPPS
modifications: ends and bridges not checked
In vitro activity (%) compared with native peptide: vs GLP-1 [1]: 1.5%
In vitro activity (%) compared with native peptide: vs Glucagon [2]: < 0.1%
In vitro activity (%) compared with native peptide: vs GIP [3]: < 0.1%

B17: triple agonist of SEQ ID NO: 45 (peptide)
peptide: HGQGTFTSDCSKYMDGQAAQDFVAWLLAGGPSSGAPPPS
modifications: ends and bridges not checked
In vitro activity (%) compared with native peptide: vs GLP-1 [1]: 6.6%
In vitro activity (%) compared with native peptide: vs Glucagon [2]: < 0.1%
In vitro activity (%) compared with native peptide: vs GIP [3]: < 0.1%

B18: triple agonist of SEQ ID NO: 47 (peptide)
peptide: HGQGTFTSDCSKYLDGQRAQEFVAWLLAGGPSSGAPPPS
modifications: ends and bridges not checked
In vitro activity (%) compared with native peptide: vs GLP-1 [1]: 2.4%
In vitro activity (%) compared with native peptide: vs Glucagon [2]: < 0.1%
In vitro activity (%) compared with native peptide: vs GIP [3]: < 0.1%

B19: triple agonist of SEQ ID NO: 52 (peptide)
peptide: H[Aib]QGTFTSDYSKYLDEKRQKEFVQWLLDTC
modifications: bridge 16-20; not fully specified
In vitro activity (%) compared with native peptide: vs GLP-1 [1]: 44.1%
In vitro activity (%) compared with native peptide: vs Glucagon [2]: 7.5%
In vitro activity (%) compared with native peptide: vs GIP [3]: 0.3%

B20: triple agonist of SEQ ID NO: 49 (peptide)
peptide: {Acetyl(2-(4-imidazolyl))}-[Aib]QGTFTSDYSICMDEIHQKDFVNWLLNTK
modifications: bridge 15-19; not fully specified
In vitro activity (%) compared with native peptide: vs GLP-1 [1]: 29.8%
In vitro activity (%) compared with native peptide: vs Glucagon [2]: < 0.1%
In vitro activity (%) compared with native peptide: vs GIP [3]: 3.3%

B21: triple agonist of SEQ ID NO: 62 (peptide)
peptide: {Acetyl(2-(4-imidazolyl))}-[Aib]QGTFTSDKSKYLDERAAQDFVQWLLDGGPSSGAPPPS
modifications: not fully specified
In vitro activity (%) compared with native peptide: vs GLP-1 [1]: 5.2%
In vitro activity (%) compared with native peptide: vs Glucagon [2]: < 0.1%
In vitro activity (%) compared with native peptide: vs GIP [3]: < 0.1%

B22: triple agonist of SEQ ID NO: 67 (peptide)
peptide: Y[Aib]QGTFTSDYSKYLDECAAKDFVQWLLDHHPSSGQPPPS
modifications: bridge 16-20
In vitro activity (%) compared with native peptide: vs GLP-1 [1]: 28.5%
In vitro activity (%) compared with native peptide: vs Glucagon [2]: 46.2%
In vitro activity (%) compared with native peptide: vs GIP [3]: 39.8%

B23: triple agonist of SEQ ID NO: 54 (peptide)
peptide: H[Aib]EGTFTSDYSIAMDEIHQKDFVDWLLAEC
modifications: bridge 16-20; not fully specified
In vitro activity (%) compared with native peptide: vs GLP-1 [1]: 30.6%
In vitro activity (%) compared with native peptide: vs Glucagon [2]: 1.4%
In vitro activity (%) compared with native peptide: vs GIP [3]: 0.1%

B24: triple agonist of SEQ ID NO: 70 (peptide)
peptide: Y[Aib]QGTFTSDYSKCLDEKRAKDFVQWLLDHHPSSGQPPPS
modifications: bridge 16-20; not fully specified
In vitro activity (%) compared with native peptide: vs GLP-1 [1]: 15.1%
In vitro activity (%) compared with native peptide: vs Glucagon [2]: 71.3%
In vitro activity (%) compared with native peptide: vs GIP [3]: 64.4%

B25: triple agonist of SEQ ID NO: 64 (peptide)
peptide: Y[Aib]QGTFTSDYSKYLDECAAKEFVQWLLDHHPSSGQPPPS
modifications: bridge 16-20; not fully specified
In vitro activity (%) compared with native peptide: vs GLP-1 [1]: 64.6%
In vitro activity (%) compared with native peptide: vs Glucagon [2]: 60.1%
In vitro activity (%) compared with native peptide: vs GIP [3]: 92.9%

B26: triple agonist of SEQ ID NO: 60 (peptide)
peptide: {Acetyl(2-(4-imidazolyl))}-[Aib]QGTFTSDYSIAMDEKHCKDFVNWLLNTK
modifications: bridge 15-19; not fully specified
In vitro activity (%) compared with native peptide: vs GLP-1 [1]: 106%
In vitro activity (%) compared with native peptide: vs Glucagon [2]: < 0.1%
In vitro activity (%) compared with native peptide: vs GIP [3]: 8.2%

B27: triple agonist of SEQ ID NO: 50 (peptide)
peptide: H[Aib]QGTFTSDYSKYLDEKRAKEFVQWLLDHHPSSGQPPPSC
modifications: bridge 16-20; not fully specified
In vitro activity (%) compared with native peptide: vs GLP-1 [1]: 67.4%
In vitro activity (%) compared with native peptide: vs Glucagon [2]: 50.5%
In vitro activity (%) compared with native peptide: vs GIP [3]: 2.7%
